B1: DFFB (parent)
chain: KLNCDPSRIYKPQTRLKRKQPVRK
B2: EPB41L3 (parent)
chain: KKFLTLGSKFRYSGRTQAQTRRAS

Variants of: B1
Assay: protein stability index of a GFP-peptide fusion (GPS, HEK-293T) (PSI 1-6); higher = more stable
Conditions: c terminus: a fixed tail appended
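Further: lentivirally expressed fusions sorted by FACS into six bins by GFP to DsRed ratio, PSI derived from sequencing read proportions per bin multiplied by bin number.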

Row | Variant | protein stability index
1 | K1D | 4.23
2 | K1F | 2.63
3 | K1E | 3.42
4 | K1G | 3.13
5 | K1C | 3.2
6 | K1A | 4.14

Variants of: B2
Assay: as above
Conditions: c terminus: a fixed tail appended

Row | Variant | protein stability index
7 | S24M | 2.5
8 | S24P | 2.57
9 | S24H | 2.25
10 | S24R | 3.68
11 | S24D | 3.31
12 | S24L | 2
13 | S24T | 3.46
14 | S24V | 2.15
15 | S24Q | 2.51
16 | S24N | 2.83
17 | S24G | 2.65
18 | S24W | 2.57
19 | S24Y | 2.66
20 | S24C | 2.1
21 | S24I | 2.5
22 | S24F | 2.36
23 | S24K | 3.64
24 | L6T | 3.88
25 | L6A | 4.31
26 | L6D | 4.05
27 | L6C | 3.17
28 | L6V | 3.61
29 | L6Y | 2.48
30 | L6M | 2.64
31 | L6E | 4.08
32 | L6I | 2.75

Row | Variant | protein stability index
33 | L6K | 3.64
34 | L6S | 2.52
35 | L6N | 3.44
36 | L6P | 3.57
37 | L6Q | 3.97
38 | L6H | 3.38
39 | R21Y | 2.48
40 | R21S | 3.24
41 | R21V | 3.27
42 | R21M | 1.86
43 | R21L | 1.61
44 | R21A | 1.96
45 | R21T | 2.24
46 | R21D | 2.69
47 | R21I | 2.16
48 | R21K | 3.75
49 | R21E | 2.2
50 | R21F | 1.98
51 | R21W | 2.85
52 | R21N | 2.1
53 | A18Y | 3.11
54 | A18T | 3.1
55 | A18S | 3.19
56 | A18L | 2.44
57 | A18H | 2.49
58 | A18K | 2.61

Row | Variant | protein stability index
59 | A18V | 2.84
60 | A18P | 2.92
61 | A18N | 3.55
62 | A18I | 2.91
63 | A18M | 2.77
64 | A18Q | 2.73
65 | A18E | 3.23
66 | A18F | 2.44
67 | Q19E | 2.69
68 | Q19S | 2.45
69 | Q19R | 3.03
70 | Q19D | 1.2
71 | Q19Y | 2.22
72 | Q19H | 2.52
73 | Q19P | 3.19
74 | Q19T | 2.61
75 | Q19C | 2.77
76 | Q19I | 2.37
77 | Q19W | 2.58
78 | Q19A | 2.68
79 | Q19N | 3.41
80 | Q19F | 2.1
81 | T16F | 2.94
82 | T16L | 2.52
83 | T16G | 2.54
84 | T16K | 3.02

Row | Variant | protein stability index
85 | T16E | 3.38
86 | T16N | 3.28
87 | T16R | 3.13
88 | T16D | 2.87
89 | T16W | 1.84
90 | T16A | 2.53
91 | T16Q | 2.94
92 | T16S | 3.36
93 | T16M | 2.99
94 | T16C | 2.2
95 | T16I | 2.83
96 | T16V | 2.74
97 | T16H | 2.93
98 | T16Y | 3.72
99 | G7Y | 3.02
100 | G7T | 3.58
101 | G7M | 2.09
102 | G7A | 2.95
103 | G7L | 2.25
104 | G7V | 2.26
105 | G7C | 2.38
106 | G7W | 1.52
107 | G7I | 1.35
108 | G7S | 3.04
109 | G7N | 2.88
110 | G7K | 2.37

Row | Variant | protein stability index
111 | G7H | 2.51
112 | G7P | 3.18
113 | G7F | 2.4
114 | G7D | 3.3
115 | G7Q | 2.85
116 | R22N | 1.87
117 | R22P | 2.52
118 | R22D | 2.24
119 | R22L | 2.19
120 | R22I | 2.02
121 | R22M | 1.75
122 | R22K | 3.1
123 | R22E | 2.72
124 | R22Q | 2.44
125 | R22F | 2.05
126 | R22Y | 2.13
127 | R22W | 1.41
128 | R22A | 2.08
129 | R22T | 3.24
130 | R22S | 2.7
131 | R22V | 2.64
132 | T20V | 3.28
133 | T20C | 3.77
134 | T20H | 2.91
135 | T20A | 2.64
136 | T20F | 2.28

Row | Variant | protein stability index
137 | T20K | 3.2
138 | T20L | 2.06
139 | T20D | 2.33
140 | T20Y | 2.69
141 | T20I | 3.28
142 | T20P | 2.81
143 | T20G | 1.9
144 | T20S | 3.56
145 | T20M | 2.32
146 | T20N | 2.62
147 | T20R | 3.47
148 | L4I | 2.56
149 | L4K | 3.33
150 | L4R | 3.13
151 | L4N | 3.44
152 | L4S | 2.91
153 | L4Q | 2.38
154 | L4M | 3.19
155 | L4T | 3.11
156 | L4V | 3.02
157 | L4P | 3.8
158 | A23M | 2.49
159 | A23G | 3.69
160 | A23P | 2.5
161 | A23D | 2.53
162 | A23L | 3.66

Row | Variant | protein stability index
163 | A23T | 2.92
164 | A23Y | 2.13
165 | A23W | 3.26
166 | A23N | 2.85
167 | A23E | 3.21
168 | A23K | 3.81
169 | A23C | 2.24
170 | A23H | 3
171 | A23R | 4.08
172 | A23Q | 3.27
173 | A23S | 2.96
174 | A23I | 3.4
175 | G14Q | 3.56
176 | G14V | 2.96
177 | G14N | 3.67
178 | G14F | 2.56
179 | G14D | 2.81
180 | G14M | 3.71
181 | G14H | 3.57
182 | G14W | 4.87
183 | G14E | 3.75
184 | G14A | 3.42
185 | G14K | 3.1
186 | G14S | 3.34
187 | G14P | 3.46
188 | G14T | 3.81

Row | Variant | protein stability index
189 | G14I | 2.44
190 | G14L | 4.04
191 | G14R | 3.38
192 | G14Y | 3.03
193 | G14C | 2.06
194 | R11A | 3.11
195 | R11V | 3.17
196 | R11G | 3.57
197 | R11H | 3.7
198 | R11N | 2.63
199 | R11I | 2.89
200 | R11P | 3.08
201 | R11C | 3.96
202 | R11F | 2.48
203 | R11K | 2.92
204 | R11T | 3.6
205 | R11S | 3.4
206 | R11L | 2.43
207 | R11D | 4.24
208 | S13W | 2.91
209 | S13Y | 3.1
210 | S13T | 2.74
211 | S13N | 3.95
212 | S13Q | 3.04
213 | S13I | 2.34
214 | S13M | 2.87

Row | Variant | protein stability index
215 | S13A | 2.63
216 | S13P | 2.55
217 | S13C | 1.41
218 | S13F | 2.67
219 | S13D | 2.85
220 | S13G | 2.88
221 | S13H | 2.68
222 | S13V | 2.01
223 | S13K | 3.96
224 | S13E | 4.01
225 | Y12K | 3.01
226 | Y12M | 3.9
227 | Y12R | 4.02
228 | Y12A | 4.58
229 | Y12T | 3.96
230 | Y12P | 3.23
231 | Y12I | 3.69
232 | Y12C | 2.54
233 | Y12Q | 3.82
234 | Y12F | 2.6
235 | R15L | 2.64
236 | R15P | 2.58
237 | R15K | 2.85
238 | R15M | 2.49
239 | R15T | 3.4
240 | R15S | 2.53

Row | Variant | protein stability index
241 | R15A | 3.32
242 | R15I | 2.19
243 | R15N | 2.77
244 | R15V | 2.93
245 | R15C | 2.66
246 | R15E | 2.89
247 | R15W | 2.05
248 | R15H | 3.12
249 | R15G | 2.33
250 | R15D | 3.81
251 | R15Q | 3.3
252 | R15F | 2.19
253 | R15Y | 2.16
254 | Q17F | 1.76
255 | Q17A | 2.32
256 | Q17R | 2.95
257 | Q17Y | 2.12
258 | Q17L | 2.77
259 | Q17T | 2.38
260 | Q17H | 3.25
261 | Q17C | 2.94
262 | Q17D | 2.95
263 | Q17G | 2.63
264 | Q17N | 2.01
265 | Q17V | 2.24
266 | Q17E | 2.76

Row | Variant | protein stability index
267 | Q17I | 2.57
268 | Q17M | 2.77
269 | Q17S | 2.01
270 | Q17K | 2.11
271 | S8V | 2.81
272 | S8K | 2.56
273 | S8H | 3.01
274 | S8G | 2.81
275 | S8N | 2.89
276 | S8R | 3.46
277 | S8C | 2.04
278 | S8T | 2.88
279 | S8Q | 2.78
280 | S8Y | 3.4
281 | S8D | 2.86
282 | S8A | 3.02
283 | S8F | 2.43
284 | S8L | 2.17
285 | S8I | 2.33
286 | S8P | 2.16
287 | S8M | 2.74
288 | S8E | 3.26
289 | T5D | 1.62
290 | T5P | 2.67
291 | T5G | 3.25
292 | T5R | 3.06

Row | Variant | protein stability index
293 | T5K | 3.39
294 | T5Y | 1.88
295 | T5F | 1.84
296 | T5S | 3.05
297 | T5I | 2.27
298 | T5N | 3.47
299 | T5C | 2.21
300 | T5A | 3.78
301 | T5E | 2.96
302 | T5H | 2.82
303 | T5W | 1.56
304 | T5M | 2.74
305 | T5Q | 3.38
306 | K9F | 2.13
307 | K9A | 1.96
308 | K9N | 1.99
309 | K9T | 2.13
310 | K9M | 2.27
311 | K9L | 2.29
312 | K9C | 1.66
313 | K9Y | 2.85
314 | K9V | 2.23
315 | K9D | 2.01
316 | K9H | 2.11
317 | K9E | 1.34
318 | K9Q | 1.79

Row | Variant | protein stability index
319 | K9I | 2.6
320 | F10V | 2.92
321 | F10Y | 3.21
322 | F10I | 3.63
323 | F10D | 3.88
324 | F10W | 2.77
325 | F10H | 4.22
326 | F10S | 4.22
327 | F10P | 4.07
328 | F10L | 4.09
329 | F10Q | 3.88
330 | F10K | 4.16
331 | F10M | 3.59
332 | F10C | 3.11
333 | F10N | 3.59
334 | F10T | 3.54

— the supplement of paper PMC10567573
